US20140037661A1, “Wheat Antigens and Peptides for Diagnosis of Wheat Induced Hypersensitivity” (PHADIA AB, priority 2011, published 2014)

B1: C175: recombinant protein of clone 175: the three C-terminal regions of GluB3-23 and the hexa-histidine tag (protein)
chain: RQQLGQGQQGYYPTSLQPGQKQQAGQGQQSGQGQQGYYPTSPQQSGQGQQPGQGQPGYYPTSPQQSGQWQQPGQGQQPGQGQQSGQWQLVYYPTSPQQQIVLQQRPPFLQQQQPSLPQQPPFSQQQQQLVLPQQQIPFVHPSILQQLNPCKVFLQQQCSPVAMPQSLARSQMLQQSSCHVMQQQCCQQLPQIPQQSRYEAIRAIIYSIILQEQQQVQGSIQTPQQQPQQLGQCVSQPQQQSQQQLGQQPQQQQLAQGTFLQPHQIAQLEVMTSIALRTLPTMCRVNVPLYRTTTSVPFGVGTGVGSYHHHHHH
B2: GG2: recombinant gamma gliadin 2 with 6×Histidine at the C terminal end, expressed in E. coli (protein)
chain: MNIQVDPSSQVQWPQQQPVPQPHQPFSQQPQQTFPQPQQTFPHQPQQQFPQPQQPQQQFLQPQQPFPQQPQQPYPQQPQQPFPQTQQPQQLFPQSQQPQQQFSQPQQQFPQPQQPQQSFPQQQPPFIQPSLQQQVNPCKNFLLQQCKPVSLVSSLWSMIWPQSDCQVMRQQSCQQLAQIPQQLQCAAIHTVIHSIIMQQEQQQGMHILLPLYQQQQVGQGTLVQGQGIIQPQQPAQLEAIRSLVLQTLPTMCNVYVPPECSIIKAPFSSVVAGIGGQYRHHHHHH
B3: α-purothionin: clone 84-derived wheat allergen expressed as recombinant protein with C-terminal hexahistidine tag in E. coli (protein, listed as Triticum aestivum)
chain: LSSGLSCPKGFPKLALESNSDEPDTIEYCNLGCRSSVCDYMVNAAADDEEMKLYVENCADACVSFCNGDAGLPSLDAY
modifications: C-terminal His6 tag
notes: clone 84-derived wheat allergen expressed as recombinant protein with C-terminal hexahistidine tag in E. coli
B4: GluB3-23: recombinant full length s-LMW glutenin GluB3-23 of wheat without signal peptide, plus hexa-histidine tag (protein)
chain: MKTFLIFALLAIVATSAIAQMENSHIPGLERPSQQQPLPPQQTLSHHQQQQPIQQQPQPFSQQQPCSQQQQQPLSQQQQPPFSQQQPPFSQQQQQPLSQQQQPPFSQQQPPFSQQQQPPFSQQQPPFSQQQQPVLPQQPSFSQQQLPPFSQQQSPFSQQQQIVLQQQPPFLQQQQPSLPQQPPFSQQQQQLVLPQQQIPFVHPSILQQLNPCKVFLQQQCSPVAMPQSLARSQMLQQSSCHVMQQQCCQQLPQIPQQSRYEAIRAIIYSIILQEQQQVQGSIQTPQQQPQQLGQCVSQPQQQSQQQLGQQPQQQQLAQGTFLQPHQIAQLEVMTSIALRTLPTMCRVNVPLYRTTTSVPFGVGTGVGSYHHHHHH
B5: Bet v 1: recombinant protein used for control pre-incubation of sera in the IgE inhibition dot blot (protein)
chain: GVFNYETETTSVIPAARLFKAFILDGDNLFPKVAPQAISSVENIEGNGGPGTIKKISFPEGFPFKYVKDRVDEVDHTNFKYNYSVIEGGPIGDTLEKISNEIKIVATPDGGSILKISNKYHTKGDHEVKAEQVKASKEMGETLLRAVESYLLAHSDAYN
B6: GG1: recombinant gamma gliadin 1 with 6×Histidine at the C terminal end, expressed in E. coli (protein)
chain: MNIQVDPSGQVQWLQQQLVPQLQQPLSQQPQQTFPQPQQTFPHQPQQQVPQPQQPQQPFLQPQQPFPQQPQQPFPQTQQPQQPFPQQPQQPFPQTQQPQQPFPQQPQQPFPQTQQPQQPFPQLQQPQQPFPQPQQQLPQPQQPQQSFPQQQRPFIQPSLQQQLNPCKNILLQQSKPASLVSSLWSIIWPQSDCQVMRQQCCQQLAQIPQQLQCAAIHSVVHSIIMQQQQQQQQQQGIDIFLPLSQHEQVGQGSLVQGQGIIQPQQPAQLEAIRSLVLQTLPSMCNVYVPPECSIMRAPFASIVAGIGGQHHHHHH
B7: mal82: recombinant MBP fusion with part of repetitive region and C-terminal non repetitive region of Glu-B1, hexa-histidine tag (protein)
chain: PTSPQQSGQGQQGYYPTSPQQSGQGQQGYYPTSPQQSGQGQQPGQGQQPRQGQQGYYPISPQQSGQGQQPGQGQQRYYPTSPQQSGQGQQPGHEQQPGQWLQPGQGQQGYYPTSSQQSGQGHQSGQGQQGYYPTSLWQPGQGQQPGQGQQGYASPYHVSAEYQAARLKVAKAQQLAAQLPAMCRLEGSDALSTRQHHHHHH
modifications: left off: large carriers
B8: mal43: recombinant MBP fusion with part of the repetitive domain of HMW glutenin Glu-B1 and hexa-histidine tag (protein)
chain: RNSGQQLGQGQPGYYPTSQQSEQRQQPGQGKQPGQGQQGYYPTSPQQSGQGQQLGQGQPGYYPTSPQQSGQGQQSGQGQQGYYPTSPQQSGQGQQPGQGQSGYFPTSRQQSGQGQQPGQGQQSGQGQQGQQPGQGQQAYYPTSSQQSRQRQQAGQWQRPGQGQPGYYPTSPQQPGQEQQSGQAQQSGQWQLVYYPTSPQQPGQLQQPAQGQQPAQGQQSAQEQQPGQAQQSGQWQLVYYPTSPQQPGQLQQPAQGQQGYYPTSPQQSGQGQQGYYPTSSRHHHHHH
modifications: left off: large carriers

Assays:
[1] = system: serum IgE antibodies from patients suffering from wheat food allergy; test: IgE reactivity dot blot with sera from wheat food allergic patients; assay type: binding, human; conditions: for patients showing IgE reactivity: 0.5 μg dotted protein, sera 1:10; for patients reacting to the recombinant protein (IgE): FIG. 12
Protocol: GluB3-23 is a major allergen in wheat dependent food allergy IgE reactivity of wheat food allergic patients to GluB3-23 and C175 was tested by dot blot analysis shown in FIG. 10 and FIG. 11. 0.5 μg of purified recombinant proteins (GluB3-23 and C175), 2 μg aqueous wheat seed (WSE) extract and 0.5 μg of human serum albumin (HSA) were dotted onto nitrocellulose (Whatman Protran nitrocellulose membrane, Sigma Aldrich) strips and after blocking with buffer A (50 mM sodium phosphate buffer, pH7.4, 0.5% w/v BSA, 0.5% v/v Tween-20, 0.05% w/v NaN3) incubated with 1:10 diluted sera from patients suffering from wheat food allergy. Bound IgE Abs were detected with 1:10 diluted ^125I labeled anti human IgE Abs and visualized by autoradiography.
Sera were obtained from populations of patients suffering from wheat food allergy. Patients were selected according to positive case history, positive Skin Prick Test (SPT), double blind or open food challenge or CAP-test (Phadia, Uppsala, Sweden) to wheat.
The recombinant high molecular weight proteins mal43 and mal82, representing partial proteins of Glu-B1, were tested in dot blots with sera from patients from a population shown in FIG. 11. Sera were obtained from patients suffering from wheat food allergy. Patients were selected according to positive case history and positive Skin Prick Test (SPT) or CAP-test (Phadia, Uppsala, Sweden) to wheat. 0.5 μg of purified recombinant proteins (mal43 and mal82), 2 μg aqueous wheat seed (WSE) extract and 0.5 μg of human serum albumin (HSA) were dotted onto nitrocellulose (Whatman Protran nitrocellulose membrane, Sigma Aldrich) strips and after blocking with buffer A incubated with 1:10 diluted patients sera. Bound IgE Abs were detected with 1:10 diluted ^125I labeled anti human IgE Abs and visualized by autoradiography. […] On the basis of WHO/IRIS Allergen Standardization Committee definition (www.allergen.org), an allergen recognized by 10% of the patients is a minor allergen.
The IgE reactivity of dot-blotted recombinant wheat α-purothionin was tested with serum IgE antibodies from patients suffering from wheat food allergy (Table 3). […] 23% of patients from one population (n=13) and 29% of the patients from another population (n=24) reacted to the recombinant α-purothionin. (FIG. 12).

[2] = system: serum IgA of celiac disease patients; test: IgA reactivity ELISA to wheat food antigens; assay type: binding, human; conditions: 5 μg/ml coated, sera 1:100, read at 405 nm, FIG. 15
Protocol: 100 μl of the wheat proteins GG1 (Gamma gliadin 1), GG2 (Gamma gliadin 2), α-purothionin, GluB3-23, C-175, Mal 82 and Mal 43 of a concentration of 5 μg/ml were coated overnight at 4° C. onto Nunc Maxisorp Elisa plates. The remaining free binding sites were blocked with 1% BSA in PBST for 2 hours at room temperature. 100 μl of sera from celiac disease patients, celiac patients on diet and negative controls were added at a dilution of 1:100 in 0.5% BSA in PBST buffer and incubated for 12 hours at 4° C. The plates were washed 5 times in PBST buffer and 100 μl of mouse anti-human IgA1/A2 (BD Biosciences) diluted to 1:1000 in 0.5% BSA/PBST buffer was added and incubated at room temperature for 5 hours. The plates were then washed 5 times with PBST and 100 μl of sheep anti-mouse IgG conjugated with Horse radish peroxidise (HRP) (Amersham) antibodies were added and incubated at 37° C. for one hour.

[3] = system: IgE binding to GluB3-23; test: IgE inhibition dot blot (sera pre-incubated with recombinant protein); design: species or system human
Protocol: An inhibition dot blot was performed with patients' sera. […] Bound IgE Abs were detected with ^125I-labelled anti human IgE Abs and visualized by autoradiography, the dot intensity was measured by a gamma counter.

[4] = system: serum IgA from Dermatitis herpetiformis (DH) patients; test: Dermatitis herpetiformis serum IgA reactivity ELISA; assay type: binding, human; conditions: 5 μg/ml coated; n=12 DH patients, 2 healthy controls; FIG. 18
Protocol: ELISA plates were coated with 100 μl of 5 μg/ml rGamma gliadin 1, rGamma gliadin 2, α-gliadin peptide p56-75 (α-gli peptide), deamidated α-gliadin peptide (D) and Human serum albumin. The bound proteins were probed with sera from Dermatitis herpetiformis (DH) patients and healthy controls. IgA reactivity to the proteins was detected using mouse anti-human IgA1/A2 and sheep anti-mouse IgG-HRP labelled antibody. (n=12 DH patients and 2 healthy controls).

[5] = another wheat food allergy patient population, FIG. 11
[6] = wheat food allergy patient population of FIG. 10
[7] = serum Pat 3, pre-incubated with 10 μg protein
[8] = serum Pat 8, pre-incubated with 10 μg protein
[9] = serum Pat 10, pre-incubated with 10 μg protein
[10] = serum Pat 11, pre-incubated with 10 μg protein
[11] = serum Pat 12, pre-incubated with 10 μg protein

| Molecule | patients showing IgE reactivity [1, 5] | IgA reactivity [2] | bound IgE, dot intensity by gamma counter [3, 7] | bound IgE, dot intensity by gamma counter [3, 9] | bound IgE, dot intensity by gamma counter [3, 10] | bound IgE, dot intensity by gamma counter [3, 11] | further results |
| --- | --- | --- | --- | --- | --- | --- | --- |
| B1 | 73.1% | moderate | 650.0 cpm | 379.1 cpm | 190.0 cpm | 16.2 cpm | patients showing IgE reactivity [1, 6]: 27.3%; % inhibition of IgE binding [3, 7]: 22.6%; % inhibition of IgE binding [3, 8]: 3.0%; bound IgE, dot intensity by gamma counter [3, 8]: 73.9 cpm; % inhibition of IgE binding [3, 9]: 0.0%; % inhibition of IgE binding [3, 10]: 55.3%; potential to inhibit IgE binding to GluB3-23 ([3]; summary of Table 2): low potential to inhibit IgE binding |
| B2 |  | high |  |  |  |  | IgA reactivity, DH patients versus healthy controls [4]: higher IgA reactivity to sera from DH patients than to healthy controls |
| B3 |  | negative |  |  |  |  | patients reacting to the recombinant protein (IgE) ([1]; another population (n=24)): 29%; patients reacting to the recombinant protein (IgE) ([1]; one population (n=13)): 23% |
| B4 | 80.8% | moderate | 326.0 cpm | 36.0 cpm | 58.9 cpm | 17.7 cpm | patients showing IgE reactivity [1, 6]: 54.5%; % inhibition of IgE binding [3, 7]: 63.3%; % inhibition of IgE binding [3, 8]: 100.0%; bound IgE, dot intensity by gamma counter [3, 8]: 31.5 cpm; % inhibition of IgE binding [3, 9]: 100.0%; % inhibition of IgE binding [3, 10]: 93.8% |
| B5 |  |  | 829.0 cpm | 377.6 cpm | 379.0 cpm | 11.5 cpm |  |
| B6 |  | high |  |  |  |  | IgA reactivity, DH patients versus healthy controls [4]: higher IgA reactivity to sera from DH patients than to healthy controls |
| B7 | 30.8% | moderate |  |  |  |  |  |
| B8 | 30.8% | moderate |  |  |  |  |  |
